Data taken from publication doi:10.1101/2021.06.01.446672 (bioRxiv, 2021).

B1: PYP-binding protein (PBP) from Rhodobacter capsulatus (natural protein, UniProt D5AR21 1-142, looked up)
chain: MDIVGQLMTDNGRYTFRSDTLNLRVTGDFPEWVMAAAAEMVGIVARREVDSKIDELQALVEFGEASEIEIDSVKYDAKERFEIIPQCVVTMGRTDYRWVAPEGRAKHCATFDGNPVTRVHDMSMTRNDSFLDNENGVDTSGH
B2: Photoactive yellow protein from Rhodobacter capsulatus (Rc-PYP) (natural protein, UniProt O69138 1-124, looked up)
chain: MEIIPFGTNDIDNILAREPARAESLPFGAVLLDRMGRIAKYNKAEGLIAGRDPSTVIGRDFFNEIAPCAKGKRFHGEFLKFNRTGQANVMLDYKFNYKGAEVAVKIHLKSQPDGQFCWLFVKRA
modifications: chromophore (protonated in pUV, deprotonated in pBL; isomerised on photoexcitation)

Columns and labels:
SEC = molecular target: the molecule itself; assay: SEC
[1] = molecular target: B1; assay: transient grating
[2] = molecular target: B1; assay: transient absorption

kon [1] [M⁻¹ s⁻¹] | kon [2] [M⁻¹ s⁻¹] | Binder | stoichiometry N (SEC)
– | – | B1 | 2
1.1e+06 | 1.2e+06 | B2 | –
